Experimental data taken from patent US7176277 (BURNHAM INSTITUTE, dated 2007).

B1: TR3/ΔDBD/ΔDC1 (other, not shown: large carriers; small tags and cut ends)
chain: MPCIQAQYGTPAPSPGPRDHLASDPLTPEFIKPTMDLASPEAAPAAPTALPSFSTFMDGYTGEFDTFLYQLPGTVQPCSSASSSASSTSSSSATSPASASFKFEDFQVYGCYPGPLSGPVDEALSSSGSDYYGSPCSAPSPSTPSFQPPQLSPWDGSFGHFSPSQTYEHVAAVAGEPQPASCLSRLLGKLPELRTLCTQGLQRIFYLKLEDLVPPPPIIDKIFMDTLPF
notes: also called TR3/ΔDBD/DC1; GFP fusion
B2: Bcl-2/ΔLoop (other, UniProt P10415 1-239, looked up)
chain: MAHAGRTGYDNREIVMKYIHYKLSQRGYEWDAAGPALSPVPPVVHLTLRQAGDDFSRRYRRDFAEMSSQLHLTPFTARGRFATVVEELFRDGVNWGRIVAFFEFGGVMCVESVNREMSPLVDNIALWMTEYLNRHLHTWIQDNGGWDAFVELYGPSMRPLFDFSWLSLKTLLSLALVGACITLGAYLGHK
notes: also called Bcl-2 lacking the loop region

What was measured:
[1] = target: T1, Bcl-2 (UniProt P10415 1-239); test: Co-IP (result restated in Example 8)
T1 construct: The residue numbers used for the mutants (Tyr108, Leu137, Gly145, Arg146, TM 205-239) fit human Bcl-2 alpha; also called full-length Bcl-2; ^35S-labeled Bcl-2
Method: (§1) The cells were harvested and reporter gene activity was measured. […] Cells were suspended in lysis buffer (50 mM Tris-HCl, PH7.4; 150 mM NaCl; 20 mM EDTA; 1% NP-40; 1 mM PMSF; 50 μg/ml Leupeptin; 20 mg/ml Aprotinin; 0.1 mM Na_3VO_4; and 1 mM DTT). Cells extracts were cleared by incubation with the Protein A/G plus Agarose beads (Santa Cruz) and then incubated with appropriate antibody and 30 μl of Protein A or G plus Agarose beads overnight at 4° C. […] Immunoreactive products were detected by chemiluminescence with an enhanced chemiluminescence system (ECL) (Amersham).
A Co-IP assay was performed, as described above.

[2] = target: T2, GFP-TR3/ΔDBD (human, UniProt P22736 1-598); test: Co-IP
T2 construct: also called GFP-ΔDBD
Method: as §1

Binder	binding result [1]	binding result [2]
B1	no binding	
B2		no binding
